From paper PMC5971111 (Nature structural & molecular biology, 2018)

Key:
Test in all cases: […]
[1] = target: T1, Sec5 (S. cerevisiae, UniProt P89102 1-971)
T1 sequence: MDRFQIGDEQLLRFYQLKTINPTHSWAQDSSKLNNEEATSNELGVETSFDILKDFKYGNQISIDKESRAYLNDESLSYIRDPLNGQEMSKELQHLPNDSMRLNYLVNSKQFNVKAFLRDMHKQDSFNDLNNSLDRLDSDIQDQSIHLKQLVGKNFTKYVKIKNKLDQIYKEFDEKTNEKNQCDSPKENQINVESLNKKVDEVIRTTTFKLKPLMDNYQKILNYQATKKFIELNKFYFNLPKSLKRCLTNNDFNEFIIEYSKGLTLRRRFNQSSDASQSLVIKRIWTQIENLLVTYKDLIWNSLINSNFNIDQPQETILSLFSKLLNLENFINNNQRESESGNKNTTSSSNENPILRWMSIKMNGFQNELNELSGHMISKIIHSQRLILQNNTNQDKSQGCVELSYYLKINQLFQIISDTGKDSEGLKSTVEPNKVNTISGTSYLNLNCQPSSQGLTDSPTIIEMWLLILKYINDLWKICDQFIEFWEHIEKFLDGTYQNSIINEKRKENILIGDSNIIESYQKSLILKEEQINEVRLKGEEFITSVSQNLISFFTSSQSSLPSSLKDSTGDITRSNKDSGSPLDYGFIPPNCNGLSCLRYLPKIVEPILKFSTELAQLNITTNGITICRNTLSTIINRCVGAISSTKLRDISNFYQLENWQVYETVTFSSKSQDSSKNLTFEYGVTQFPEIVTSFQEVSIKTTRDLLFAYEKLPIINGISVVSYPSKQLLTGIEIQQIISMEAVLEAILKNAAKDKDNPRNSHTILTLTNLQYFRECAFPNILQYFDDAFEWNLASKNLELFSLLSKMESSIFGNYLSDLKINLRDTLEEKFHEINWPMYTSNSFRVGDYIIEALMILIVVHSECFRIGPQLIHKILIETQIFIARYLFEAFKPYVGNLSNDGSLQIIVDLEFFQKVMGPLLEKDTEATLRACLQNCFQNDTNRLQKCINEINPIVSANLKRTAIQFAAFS

[2] = target: T2, Sec10 (S. cerevisiae, UniProt Q06245 1-871)
T2 sequence: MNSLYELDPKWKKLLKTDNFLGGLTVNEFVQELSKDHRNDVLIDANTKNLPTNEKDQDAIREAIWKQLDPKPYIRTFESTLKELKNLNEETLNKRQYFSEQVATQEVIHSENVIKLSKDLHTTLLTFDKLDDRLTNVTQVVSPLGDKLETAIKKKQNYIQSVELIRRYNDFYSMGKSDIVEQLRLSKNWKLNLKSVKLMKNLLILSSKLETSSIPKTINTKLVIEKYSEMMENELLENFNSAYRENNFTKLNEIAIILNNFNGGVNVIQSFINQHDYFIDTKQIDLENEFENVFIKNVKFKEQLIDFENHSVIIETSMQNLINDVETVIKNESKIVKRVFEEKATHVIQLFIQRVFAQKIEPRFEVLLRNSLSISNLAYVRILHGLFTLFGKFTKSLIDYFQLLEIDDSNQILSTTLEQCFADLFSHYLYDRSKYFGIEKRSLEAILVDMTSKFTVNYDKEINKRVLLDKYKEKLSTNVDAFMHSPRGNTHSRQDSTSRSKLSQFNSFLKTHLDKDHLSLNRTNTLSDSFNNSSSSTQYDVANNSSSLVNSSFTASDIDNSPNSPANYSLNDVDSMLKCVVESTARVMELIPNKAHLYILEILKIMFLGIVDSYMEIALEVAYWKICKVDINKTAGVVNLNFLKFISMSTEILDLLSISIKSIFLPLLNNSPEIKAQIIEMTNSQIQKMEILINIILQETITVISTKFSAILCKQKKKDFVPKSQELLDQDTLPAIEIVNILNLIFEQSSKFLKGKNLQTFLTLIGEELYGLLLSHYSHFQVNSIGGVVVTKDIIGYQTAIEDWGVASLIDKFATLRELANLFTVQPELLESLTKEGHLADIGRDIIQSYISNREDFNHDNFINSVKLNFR

[3] = target: T3, Sec15 (S. cerevisiae, UniProt P22224 1-910)
T3 sequence: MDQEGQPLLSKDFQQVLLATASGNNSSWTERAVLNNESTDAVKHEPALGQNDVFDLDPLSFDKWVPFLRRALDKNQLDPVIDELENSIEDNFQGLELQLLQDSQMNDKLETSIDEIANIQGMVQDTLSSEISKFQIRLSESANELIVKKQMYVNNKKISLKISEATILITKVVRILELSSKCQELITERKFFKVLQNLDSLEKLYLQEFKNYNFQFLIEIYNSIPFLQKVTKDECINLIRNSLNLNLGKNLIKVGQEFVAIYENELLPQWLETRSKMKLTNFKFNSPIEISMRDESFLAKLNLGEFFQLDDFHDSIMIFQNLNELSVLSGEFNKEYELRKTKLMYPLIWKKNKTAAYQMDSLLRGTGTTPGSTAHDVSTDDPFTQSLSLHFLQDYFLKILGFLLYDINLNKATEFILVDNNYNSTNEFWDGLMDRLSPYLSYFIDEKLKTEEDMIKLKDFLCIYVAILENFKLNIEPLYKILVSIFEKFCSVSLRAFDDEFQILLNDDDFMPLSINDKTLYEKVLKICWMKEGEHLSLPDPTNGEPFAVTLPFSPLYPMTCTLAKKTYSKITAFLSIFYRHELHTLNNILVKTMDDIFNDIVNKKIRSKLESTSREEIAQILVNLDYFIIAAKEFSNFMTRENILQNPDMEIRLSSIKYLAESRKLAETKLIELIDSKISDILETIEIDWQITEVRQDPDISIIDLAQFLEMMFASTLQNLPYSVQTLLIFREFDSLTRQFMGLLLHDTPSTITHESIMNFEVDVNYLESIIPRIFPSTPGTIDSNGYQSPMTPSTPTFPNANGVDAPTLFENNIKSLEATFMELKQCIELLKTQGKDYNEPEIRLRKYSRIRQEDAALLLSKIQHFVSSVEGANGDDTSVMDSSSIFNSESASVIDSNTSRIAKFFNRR

Measured: binding result

B1: Exo84 (natural protein)
chain: MVEFSLKKARNNWKHVKKSASSPAKQKTPPSPAKPKQKTKKNPYSDLKDPATSYTLPTINARERSRVATSMQRRLSIHNTNYAPPTLDYSMPLPDMPNMIVPNDNVDSSHNNSSFTTENESVSSKGPSNSLNLSTADLSLNDSSYNKVPARSAMRNTVNPSGSNDPFNNSTSLRKMLANPHFNAKDFVHDKLGNASAITIDKFTSNLTDLSIQVQEEVKLNINKSYNEIMTVNNDLNVAMLELKRVRANINDLNEVLDQCTKIAEKRLQLQDQIDQERQGNFNNVESHSNSPALLPPLKAGQNGNLMRRDRSSVLILEKFWDTELDQLFKNVEGAQKFINSTKGRHILMNSANWMELNTTTGKPLQMVQIFILNDLVLIADKSRDKQNDFIVSQCYPLKDVTVTQEEFSTKRLLFKFSNSNSSLYECRDADECSRLLDVIRKAKDDLCDIFHVEEENSKRIRESFRYLQSTQQTPGRENNRSPNKNKRRSMGGSITPGRNVTGAMDQYLLQNLTLSMHSRPRSRDMSSTAQRLKFLDEGVEEIDIELARLRFESAVETLLDIESQLEDLSERISDEELMLLNLISLKIEQRREAISSKLSQSILSSNEIVHLKSGTENMIKLGLPEQALDLFLQNRSNFIQDLILQIGSVDNPTNYLTQLAVIRFQTIKKTVEDFQDIFKELGAKISSILVDWCSDEVDNHFKLIDKQLLNDEMLSPGSIKSSRKQIDGLKAVGLDFVYKLDEFIKKNSDKIR
binds: [1] | [2] | [3]
